Results as given in US12570744 (AstraZeneca / MedImmune, dated 2026).
Each block holds one binder with its values, some of them ahead of it.

Experiments:
[1] = target: T1, human PD-1 expressed on the cell surface of engineered Jurkat cells (human, UniProt Q15116 25-288); experiment: flow cytometry on PD-1^+ Jurkat cells, Experiment #1
T1 construct: whole, on cells; also called Jurkat PD-1^+TIGIT^- cells; PD-1^+ Jurkat cells

[2] = target: T1, human PD-1 expressed on the cell …; experiment: flow cytometry on PD-1^+ Jurkat cells, mean of two experiments
[3] = target: T1, human PD-1 expressed on the cell …; experiment: flow cytometry on PD-1^+ Jurkat cells (the reference itself)
[4] = target: T1, human PD-1 expressed on the cell …; experiment: cell-based or functional assay
[5] = target: T1, human PD-1 expressed on the cell …; experiment: flow cytometry on PD-1^+ Jurkat cells, Experiment #2
[6] = target: T2, human TIGIT expressed on the cell surface (human, UniProt Q495A1 22-244); experiment: flow cytometry on TIGIT^+ Jurkat cells, mean of two experiments
T2 construct: whole, on cells; also called Jurkat PD-1^-TIGIT^+ cells; TIGIT^+ Jurkat cells
T2 sequence (looked up): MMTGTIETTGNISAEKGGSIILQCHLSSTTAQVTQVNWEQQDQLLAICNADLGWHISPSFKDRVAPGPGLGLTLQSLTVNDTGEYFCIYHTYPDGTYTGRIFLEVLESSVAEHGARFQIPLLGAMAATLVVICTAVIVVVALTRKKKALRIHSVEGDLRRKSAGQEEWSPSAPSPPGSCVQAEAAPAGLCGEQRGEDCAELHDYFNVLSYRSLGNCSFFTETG

[7] = target: T2, human TIGIT expressed on the cell …; experiment: flow cytometry on TIGIT^+ Jurkat cells, Experiment #1
[8] = target: T2, human TIGIT expressed on the cell …; experiment: flow cytometry on TIGIT^+ Jurkat cells (the reference itself)
[9] = target: T2, human TIGIT expressed on the cell …; experiment: cell-based or functional assay
[10] = target: T2, human TIGIT expressed on the cell …; experiment: flow cytometry on TIGIT^+ Jurkat cells, Experiment #2
[11] = target: T3, cynomolgus TIGIT overexpressed on 293 cells (cynomolgus, UniProt A0A7N9I9V4 89-312); experiment: flow cytometry (MFI) on 293 cells overexpressing cynomolgus TIGIT; Kd row of the table under the graph, the concentration axis is [nM]
T3 construct: whole, on cells
T3 sequence (A0A7N9I9V4 entry or part of it): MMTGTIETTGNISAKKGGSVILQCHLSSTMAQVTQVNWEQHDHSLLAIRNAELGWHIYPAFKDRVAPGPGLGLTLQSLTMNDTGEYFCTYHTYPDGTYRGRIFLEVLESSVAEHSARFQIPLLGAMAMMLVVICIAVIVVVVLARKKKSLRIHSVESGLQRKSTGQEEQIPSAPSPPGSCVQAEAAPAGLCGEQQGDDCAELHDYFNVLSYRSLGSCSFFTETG

[12] = target: T2, human TIGIT expressed on the cell …; experiment: flow cytometry (MFI) on 293 cells overexpressing human TIGIT; Kd row of the table under the graph, the concentration axis is [nM]
[13] = target: T2, human TIGIT expressed on the cell …; experiment: flow cytometry (MFI) on 293 cells overexpressing human TIGIT
[14] = target: T4, recombinant human TIGIT protein (human, UniProt Q495A1 22-141); experiment: SPR (BIAcore T200), PD-1/TIGIT DuetMab sample, huTIGIT as ligand
T4 construct: In the Octet assay it was used biotinylated on streptavidin sensors or in solution; Construct and tags are not described; also called huTIGIT; human TIGIT antigen
T4 sequence (looked up): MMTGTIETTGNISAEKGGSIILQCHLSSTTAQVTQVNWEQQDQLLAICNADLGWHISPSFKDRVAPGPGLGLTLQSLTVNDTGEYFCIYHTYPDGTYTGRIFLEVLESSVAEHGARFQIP
Procedure: (§1) Binding experiments were carried out using a BIAcore T200 instrument (BIAcore).

[15] = target: T5, muTIGIT (mouse TIGIT, recombinant) (mouse (printed as 'mu'), UniProt P86176 29-148, limits assumed); experiment: SPR (BIAcore T200), PD-1/TIGIT DuetMab sample, muTIGIT as ligand
T5 construct: Ligand in the BIAcore assay; The construct is not described
T5 sequence (looked up): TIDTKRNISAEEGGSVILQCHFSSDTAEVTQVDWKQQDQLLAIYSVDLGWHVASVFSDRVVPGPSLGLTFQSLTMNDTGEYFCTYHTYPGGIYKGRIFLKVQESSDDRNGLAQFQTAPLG
Procedure: as §1

[16] = target: T6, cyTIGIT (cynomolgus TIGIT, recombinant) (cynomolgus, UniProt A0A7N9I9V4 89-209); experiment: SPR (BIAcore T200), PD-1/TIGIT DuetMab sample, cyTIGIT as ligand
T6 construct: Ligand in the BIAcore assay; The construct is not described
T6 sequence (A0A7N9I9V4 entry or part of it): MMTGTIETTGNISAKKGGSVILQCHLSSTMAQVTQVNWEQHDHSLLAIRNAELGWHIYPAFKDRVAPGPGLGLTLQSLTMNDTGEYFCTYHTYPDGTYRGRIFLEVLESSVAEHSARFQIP
Procedure: as §1

T1 sequence (Q15116 25-288, change not shown): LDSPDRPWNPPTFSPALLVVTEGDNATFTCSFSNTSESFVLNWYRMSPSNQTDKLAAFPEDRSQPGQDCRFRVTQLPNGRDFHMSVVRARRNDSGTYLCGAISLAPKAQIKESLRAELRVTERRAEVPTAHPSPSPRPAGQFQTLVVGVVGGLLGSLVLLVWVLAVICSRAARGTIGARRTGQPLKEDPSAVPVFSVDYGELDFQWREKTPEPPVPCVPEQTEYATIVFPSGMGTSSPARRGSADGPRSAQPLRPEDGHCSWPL

B3: VL GL + VH GL (VAR1 variant DuetMab) (bispecific antibody)
chain 1: EVQLVESGGGLVQPGGSLRLSCAASGFTFSDYGMHWVRQAPGKGLEWVAYISSGSYTIYSADSVKGRFTISRDNAKNSLYLQMNSLRAEDTAVYYCARRAPNSFYEYYFDYWGQGTTVTVSS
chain 2: QIVLTQSPATLSLSPGERATLSCSASSKHTNLYWSRHMYWYQQKPGQAPRLLIYLTSNRATGIPARFSGSGSGTDFTLTISSLEPEDFAVYYCQQWSSNPFTFGQGTKLEIK
chain 3: QVQLVESGGGVVQPGRSLRLSCAASGFTFSSYAMHWVRQAPGKGLEWVAVISYAGEVKYYADSVKGRFTISRDNSKNTLYLQMNSLRAEDTAVYYCARDPLPLHYYGMDVWGQGTTVTVSS
chain 4: QSVLTQPPSASGTPGQRVTISCSGSSSNMGRRPVNWYQQLPGTAPKLLIYSQNQRPSGVPDRFSGSQSGTSASLAISGLQSEDEADYFCAVWDDIGRVLQLGGGTQLTVL
Kd [11]: 14.7 nM
Kd [12]: 3.28 nM

B4: VL WT + VH GL (VAR1 variant DuetMab) (bispecific antibody, V domains shown)
VH 1: EVQLVESGGGLVQPGGSLRLSCAASGFTFSDYGMHWVRQAPGKGLEWVAYISSGSYTIYSADSVKGRFTISRDNAKNSLYLQMNSLRAEDTAVYYCARRAPNSFYEYYFDYWGQGTTVTVSS
VL 1: QIVLTQSPATLSLSPGERATLSCSASSKHTNLYWSRHMYWYQQKPGQAPRLLIYLTSNRATGIPARFSGSGSGTDFTLTISSLEPEDFAVYYCQQWSSNPFTFGQGTKLEIK
VH 2: QVQLVESGGGVVQPGRSLRLSCAASGFTFSSYAMHWVRQAPGKGLEWVAVISYAGEVKYYADSVKGRFTISRDNSKNTLYLQMNSLRAEDTAVYYCARDPLPLHYYGMDVWGQGTTVTVSS
VL 2: QSALTQPRSASGNPGQRVTISCSGSSSNMGRRPVNWYQQIPGTAPKLLIYSQNQRPSGVPDRFSGSQSGTSASLTISGLQSEDEAEYFCAVWDDIGRVLQLGGGTQLAVL
Kd [11]: 10.8 nM
Kd [12]: 3.09 nM

B6: PD1-TIGIT duetMab LO115/P-VAR1(VHWT-VLWT) (bispecific antibody, V domains shown)
VH 1: EVQLVESGGGLVQPGGSLRLSCAASGFTFSDYGMHWVRQAPGKGLEWVAYISSGSYTIYSADSVKGRFTISRDNAKNSLYLQMNSLRAEDTAVYYCARRAPNSFYEYYFDYWGQGTTVTVSS
VL 1: QIVLTQSPATLSLSPGERATLSCSASSKHTNLYWSRHMYWYQQKPGQAPRLLIYLTSNRATGIPARFSGSGSGTDFTLTISSLEPEDFAVYYCQQWSSNPFTFGQGTKLEIK
VH 2: EVQLVETGGGLIQPGRSLRLSCAASGFTFSSYAMHWVRQAPGKGLEWVAVISYAGEVKYYADSVKGRFTISRDNSKNTLYLQMNSLRAEDTAVYYCARDPLPLHYYGMDVWGQGTTVTVSS
VL 2: QSALTQPRSASGNPGQRVTISCSGSSSNMGRRPVNWYQQIPGTAPKLLIYSQNQRPSGVPDRFSGSQSGTSASLTISGLQSEDEAEYFCAVWDDIGRVLQLGGGTQLAVL
notes: DuetMab format; also called parental VAR1; P-VAR1 w.t; DuetMab
Kd [11]: 11.2 nM
Kd [14]: 0.0099 nM
koff [14]: 4.64e-05 s⁻¹
kon [14]: 4.67e+06 M⁻¹ s⁻¹
Kd [12]: 2.56 nM
Kd [15]: 2.3 nM
koff [15]: 0.00378 s⁻¹
kon [15]: 1.66e+06 M⁻¹ s⁻¹
EC50 (read off the curve) [13]: ~2 nM
Kd [16]: 32.1 nM
koff [16]: 0.0329 s⁻¹
kon [16]: 1.03e+06 M⁻¹ s⁻¹

Results, then the binder that gave them:

EC50 [1]: 0.349 nM
EC50 [2]: 0.667 nM
Fold Change vs. anti-PD-1 (mean EC50) [3]: 1 fold
EC50 (nM), NFAT-luciferase reporter, Experiment #1 [4]: 1.93 nM
EC50 (nM), NFAT-luciferase reporter, Experiment #2 [4]: 4.14 nM
Fold Change of Mean EC50 vs. Anti-PD-1 [4]: 1 fold
Mean EC50 (nM), NFAT-luciferase reporter [4]: 3.03 nM
EC50 [5]: 0.985 nM
B1: monospecific anti-PD1 (LO115) bivalent mAb (antibody, V domains shown)
VH: EVQLVESGGGLVQPGGSLRLSCAASGFTFSDYGMHWVRQAPGKGLEWVAYISSGSYTIYSADSVKGRFTISRDNAKNSLYLQMNSLRAEDTAVYYCARRAPNSFYEYYFDYWGQGTTVTVSS
VL: QIVLTQSPATLSLSPGERATLSCSASSKHTNLYWSRHMYWYQQKPGQAPRLLIYLTSNRATGIPARFSGSGSGTDFTLTISSLEPEDFAVYYCQQWSSNPFTFGQGTKLEIK
notes: Bivalent mAb; also called bivalent anti-PD-1 antibody; parental bivalent anti-PD-1 antibody

EC50 [6]: 0.119 nM
EC50 [7]: 0.092 nM
Fold Change vs. anti-TIGIT (mean EC50) [8]: 1 fold
EC50 (nM), NFAT-luciferase reporter, Experiment #1 [9]: 1.59 nM
EC50 (nM), NFAT-luciferase reporter, Experiment #2 [9]: 2.85 nM
Fold Change of Mean EC50 vs. Anti-TIGIT [9]: 1 fold
Mean EC50 (nM), NFAT-luciferase reporter [9]: 2.22 nM
EC50 [10]: 0.147 nM
B2: monospecific anti-TIGIT (VAR1) bivalent mAb (antibody, V domains shown)
VH: QVQLVESGGGVVQPGRSLRLSCAASGFTFSSYAMHWVRQAPGKGLEWVAVISYAGEVKYYADSVKGRFTISRDNSKNTLYLQMNSLRAEDTAVYYCARDPLPLHYYGMDVWGQGTTVTVSS
VL: QSVLTQPPSASGTPGQRVTISCSGSSSNIGRRPVNWYQQLPGTAPKLLIYSQNQRPSGVPDRFSGSQSGTSASLAISGLQSEDEADYFCAVWDDIGRVLQLGGGTQLTVL
notes: Bivalent mAb; also called anti-TIGIT mAb; bivalent anti-TIGIT antibody

Kd [11]: 23.6 nM
Kd [12]: 4.43 nM
EC50 (read off the curve) [13]: ~4 nM
B5: VL GL + VH WT (VAR1 variant DuetMab) (bispecific antibody)
chain 1: EVQLVESGGGLVQPGGSLRLSCAASGFTFSDYGMHWVRQAPGKGLEWVAYISSGSYTIYSADSVKGRFTISRDNAKNSLYLQMNSLRAEDTAVYYCARRAPNSFYEYYFDYWGQGTTVTVSS
chain 2: QIVLTQSPATLSLSPGERATLSCSASSKHTNLYWSRHMYWYQQKPGQAPRLLIYLTSNRATGIPARFSGSGSGTDFTLTISSLEPEDFAVYYCQQWSSNPFTFGQGTKLEIK
chain 3: EVQLVETGGGLIQPGRSLRLSCAASGFTFSSYAMHWVRQAPGKGLEWVAVISYAGEVKYYADSVKGRFTISRDNSKNTLYLQMNSLRAEDTAVYYCARDPLPLHYYGMDVWGQGTTVTVSS
chain 4: QSVLTQPPSASGTPGQRVTISCSGSSSNMGRRPVNWYQQLPGTAPKLLIYSQNQRPSGVPDRFSGSQSGTSASLAISGLQSEDEADYFCAVWDDIGRVLQLGGGTQLTVL
